Results as given in patent publication US11382907B2, “Methods and compositions for treating aging-associated impairments using CCR3-inhibitors” (Alkahest, Inc., priority 2017, dated 2022).

What was measured:
Assay type in all cases: in vivo
[1] = test system: two-month-old C57Bl/6 mice treated with rmCCL11; test: Barnes maze test in young mice given recombinant mouse CCL11; conditions: 2-month-old mice; rmCCL11 i.p.; Compound 1 30 mg/kg p.o. b.i.d.
Source text: A modified Barnes maze was used to assess spatial working/episodic like learning and memory. The Barnes maze apparatus consists of a 122 cm diameter circular platform with 40 escape holes, each with a diameter of 5 cm placed along three rings of varying distances from the center of the platform. An escape box is attached to one of the holes and all holes are left uncovered. Bright lights and a fan are trained on the maze to provide adverse stimuli to encourage escape. Visual cues are placed on all four sides of the maze. Mice are given a series of 4 or 5 trials with inter-trial intervals of approximately 10 min, and the maximum duration of each trial is 90 or 120 sec. For each trial, mice are placed in the center of the maze. After 10 seconds, mice are allowed to explore, and the trial is ended if the mouse has found and entered an escape box before the end of the trial. Mice that cannot find the escape box are led to it and allowed to enter and given 30 sec to remain before being returned to its home cage. Training is done for 4 days. Data that is recorded and analyzed include velocity, escape latency, and distance moved.
Two-month-old C57Bl/6 mice were dosed with either vehicle control or Compound 1 by oral gavage twice daily for 18 days. During the last week of treatment, mice were subjected to behavior testing prior to perfusion on the last day of treatment. […]

[2] = test system: two-month-old C57Bl/6 mice treated with rmCCL11; test: Open Field test in young mice given recombinant mouse CCL11; conditions: 2-month-old mice; rmCCL11 i.p.; Compound 1 30 mg/kg p.o. b.i.d., 2 weeks
Experimental: Open Field is used to evaluate general locomotor activity and exploratory behavior in a novel environment. Mice are brought to the experimental room for at least 30 min for acclimation to the experimental room conditions (dim lighting) prior to testing. The testing arena consists of a 50 cm×50 cm square arena. Mice are placed in the center of an arena and tracked for 15 minutes. Time spent in the peripheral and centers zones is analyzed, along with rearing behavior. 70% ethanol is used to clean all surfaces between trials.
[…] During the last week of treatment, mice were subjected to behavior testing prior to perfusion on the last day of treatment. All mice received 5 consecutive days of BrdU injection at 150 mg/kg IP immediately prior to treatment start. […]

[3] = test system: two-month-old C57Bl/6 mice treated with rmCCL11; test: Y-maze test in young mice given recombinant mouse CCL11; conditions: 2-month-old mice; rmCCL11 i.p.; Compound 1 30 mg/kg p.o. b.i.d.
Experimental: A large Y-maze test assesses short-term memory of the familiarity of a specific context. Mice are brought to the experimental room for at least 30 min of acclimation to the experimental room conditions (dim lighting) prior to testing. For the initial training trial, the mouse is placed at the end of one arm of a large Y-maze designated “start arm” (arm length: 15 inches). The third arm of the maze is blocked off, allowing the mouse to explore two of the three arms freely (“start arm” and “familiar arm”) for 5 min. Each arm contains spatial cues. One hour later, the mouse is placed back into the maze in the “start arm” and allowed to explore all three arms with the third arm unblocked (“novel arm”). Movements in and out of each arm are tracked using automated tracking software (CleverSys). Testing is performed under dim lighting, and the apparatus is cleaned with 70% ethanol between trials.
Two-month-old C57Bl/6 mice were dosed with either vehicle control or Compound 1 by oral gavage twice daily for 18 days. During the last week of treatment, mice were subjected to behavior testing prior to perfusion on the last day of treatment. All mice received 5 consecutive days of BrdU injection at 150 mg/kg IP immediately prior to treatment start. […]

B1: rmCCL11: Recombinant mouse CCL11 (eotaxin-1), injected i.p. to impair behaviour in young mice (protein, UniProt P48298 24-97, looked up)
Eotaxin: HPGSIPTSCCFIMTSKKIPNTLLKSYKRITNNRCTLKAIVFKTRLGKEICADPKKKWVQDATKHLDQKLQTPKP
For B1, which “memory in the Barnes maze” value [1] is on record?
The value was “impaired memory in the Barnes maze”.

What about the “anxiety in the Open Field” value [2] of the same molecule?
The value was “significantly worsened anxiety”.

And the “memory in the Y-maze” value [3]?
Its value is “impaired memory in the Y-maze”.
